# From paper PMC5653653
# What was measured:
# [1] = molecular target: long Homer proteins (Homer1b/c, Homer2, and Homer3, collectively referred to as Homer) (mouse (endogenous in hippocampal neurons))
# [2] = molecular target: long Homer proteins (Homer1b/c, Homer2, and Homer3, collectively referred to as Homer) (mouse (endogenous in hippocampal neurons)); remark: listed apart in the source
# [3] = molecular target: long Homer proteins (Homer1b/c, Homer2, and Homer3, collectively referred to as Homer) (mouse (endogenous in hippocampal neurons)); remark: listed apart in the source
substance,measurement,setting,value
Metabotropic glutamate receptor subtype 5 (mGluR5) (from UniProt Q3UVX5 19-1203),"change of the mobile fraction of synaptic mGluR5 in WT neurons, TAT-mGluR5ct against TAT-mGluR5mu",[1],12.6%
same,"co-localized mGluR5/GluN1/Homer1-positive signals as percentage of synaptic GluN1 signal, WT neurons treated with TAT-mGluR5ct (5 µM, 1 h); increased",[2],71.8%
same,"co-localized mGluR5/GluN1/Homer1-positive signals as percentage of synaptic GluN1 signal, WT neurons treated with the control peptide TAT-mGluR5mu (5 µM, 1 h); no effect",[2],61.2%
same,EPSCs (NMDA) amplitude (% of baseline) after DHPG (mGluR-LTD) in WT slices treated with TAT-mGluR5ct; LTD abolished,[3],101%
same,EPSCs (NMDA) amplitude (% of baseline) after DHPG (mGluR-LTD) in WT slices treated with the control peptide TAT-mGluR5mu; LTD not abolished,[3],56.6%
same,"EPSCs (NMDA) amplitude in CA1 pyramidal neurons of WT slices treated with TAT-mGluR5ct (5 µM, 4 h); lower than untreated WT",[3],88.1 pA
same,"EPSCs (NMDA) amplitude in CA1 pyramidal neurons of WT slices treated with the control peptide TAT-mGluR5mu (5 µM, 4 h); not lower than untreated WT",[3],126 pA
same,NMDA/AMPA ratio in CA1 pyramidal neurons of WT slices treated with TAT-mGluR5ct; reduced,[3],0.88
